Results on eleven molecules are retold here after patent publication US20250011391A1, “ULTRA LIGHT-SENSITIVE NEUROPSIN-BASED OPTOGENETIC TOOL FOR ACTIVATING G q-COUPLED SIGNALING AND/OR ACTIVATING CELLS” (GENANS BIOTECHNOLOGY CO., LTD, priority 2021, published 2025).

Entries after “also recorded” stand apart in the source; their conditions may differ. Numbered stars: 1 amine (or outer) side, 2 acyl side, 3 side chain; on linkers, the order of the positions; unused ones are H or OH. Bridge positions count the residues as written; N and C are the ends. Square brackets hold non-standard residues; d marks the D form. Peptide text beside a SMILES is read from it. X1 = CC(=O)NC(C(=O)OC(C(C)C)C(N[*:1])C(=O)[*:2])C(O)C(C)C; PhLac = O=C(O)[CH](O)Cc1ccccc1; NMeT = CN[CH](C(=O)O)[CH](C)O; NMeA = CN[CH](C)C(=O)O; NMeDha = C=C(NC)C(=O)O

For experiment [1], the system named is astrocytes within the mouse S1 cortex. The experiment in a line: In vivo two-photon imaging (920 nm) of ATP release (GRABATP sensor) following astrocyte activation. As to conditions: eight hours after intraperitoneal LPS.
Experiment [2] relates to Gq signaling in HEK 293T cells. As to the kind of experiment: IP1 accumulation in Opn5-expressing HEK 293T cells. It is filed as cell-based. As to conditions: 100 μW/mm2, 470 nm; for effect on light-evoked IP1 accumulation in cOpn5-expressing cells: YM-254890 treatment, 3 min; for light-induced increase in the level of inositol phosphate (IP1): continuous light 3 min. The protocol:
(§1) Whether heterologous expression of the Opn5 orthologs from chicken, turtles, humans and mice (which share 80-90% protein sequence identity) have the capacity to mediate blue light-induced Gq signaling activation within HEK 293T cells is tested (FIG. 1a and table 7). Blue light for stimulation and the red intracellular calcium indicator Calbryte™ 630 AM dye are used to monitor the relative Ca^2+ response (FIG. 1b).
f, YM suppressed the IP1 accumulation evoked by continuous light stimulation (3 min; 100 μW/mm^2; 470 nm) in cOpn5-expressing HEK 293T cells (Left). ***P<0.0001, *P=0.0128; Tukey's multiple comparisons test.

The test system of experiment [3] is Gq signaling in HEK 293T cells. The experiment in a line: Light-induced Ca2+ signal (Calbryte 630 AM dye) in opsin-expressing HEK 293T cells. It is filed as cell-based. The conditions noted are these: for light-induced increase in Ca2+ signal: blue light 10 s, 100 μW/mm2, 488 nm, no exogenous retinal. Here is the method:
as §1
b, Pseudocolor images of the Ca2+ signal before and after blue light stimulation (10 s; 100 μW/mm^2; 488 nm) in HEK 293T cells expressing Opn5 from three species (Gallus gallus, Homo sapiens, and Mus musculus). Scale bar, 10 μm.
Characterizing the light-activating properties of cOpn5 heterologously expressed in HEK 293T cells is performed. […] The effects of different light durations on cOpn5-expressing HEK 293T cells are tested. […] Therefore, the light sensitivity of cOpn5 is 3-4 orders of magnitude higher than the reported values of the light-sensitive Gq-coupled GPCRs and even 2-3 orders higher than those of the commonly used optogenetic tool Channelrhodopsin-2 (ChR2)(Lin, 2011; Zhang et al., 2006) (table 8).
The performance of cOpn5 to that of opto-a1AR, a chimera GPCR engineered by mixing rhodopsin with Gq-coupled adrenergic receptor is compared. […] The performance of cOpn5 to that of opn4, a natural opsin which was reported as a tool for Gq signaling activating is also compared. […] Therefore, compared with existing opsin-based tools (opto-a1AR and opn4), cOpn5 is much more light-sensitive (˜3 orders more sensitive), requires much shorter time exposure (10 ms vs. 60 s), and produces stronger responses. […]
Experiments description: the following table 9 is a partial list of cOpn5 orthologs from vertebrata tested in the present invention. Whole genes of all reported opsin5 orthologs from vertebrata (the vertebrates subphylum, including rotundia, cartilaginous fishes, bony fishes, Amphibia, reptila, ornitha and mammals) are synthetized, and expressed in HEK 293T cells. Calcium imaging with or without 470 nm blue light stimulation is performed to test the sensitivity of the opsin 5 orthologs in response to light. The time course of light-induced calcium signal reveal the activated degree of Gq signaling pathway and the sensitivity of these orthologs.

For experiment [4], the target named is Gq proteins.
Experiment [5] deals with Gq proteins. The source holds these as a separate data set.
The next experiment relates to Gi signaling. As to the kind of experiment: cAMP levels in Opn5-expressing HEK 293T cells after photostimulation. It is filed as cell-based. The conditions noted are these: with retinal (10 μM retinal preincubation). Here is the method: as §1
f, Light has no effect on cAMP levels (10 μM forskolin preincubation) in cOpn5-expressing HEK 293T cells without additional retinal in the medium (left panel).

The test system of a further experiment is in vivo astrocytes. The conditions noted are these: cited from earlier work.
In the next experiment the test system is HEK293-TRPC3 cells. As to conditions: cited from earlier work.

Consider lipopolysaccharide [LPS], for which, in experiment [1], the “increase of ATP flash events over basal condition” value was about 6 fold. Moreover, in experiment [1] (mice expressing GRABATP alone), the ATP flash frequency is about 2 flashes per min.

Take `C=C1C(=O)NC(C)C(=O)N(C)C(C)C(=O)NC(C(OC(=O)C(NC(C)=O)C(O)C(C)C)C(C)C)C(=O)N(C)C(C(C)OC)C(=O)OC(C)C(NC(C)=O)C(=O)OC(Cc2ccccc2)C(=O)N1C` (centres unmarked) [YM-254890, reference compound] (Ac-T[PhLac][NMeDha]A[NMeA][X1][NMeT](Me); ester 1-C; configuration not given here): the “effect on light-evoked IP1 accumulation in cOpn5-expressing cells” value in experiment [2] is on record as “reduced”; in experiment [2] (listed as YM), “suppressed”. Further, the “effect on cOpn5-mediated, light-induced Ca2+ signals” value in experiment [3] (YM-254890 10 nM preincubation, cOpn5-expressing HEK 293T cells) is listed as “reversibly abolishes; also recorded: reversibly blocked”. For the same molecule, the “effect on turtle Opn5-mediated, light-induced Ca2+ signals” value in experiment [3] (YM-254890 10 nM, turtle Opn5-expressing HEK 293T cells) is reported as “reversibly blocked”.

Regarding “human OPN4 (melanopsin) (from UniProt Q9UHM6) (receptor)”, the light-induced Ca^2+ signal in HEK 293T cells in the experiment with Gq proteins [4] was 1 ΔF/F.

For opto-a1AR (receptor), the light-induced Ca^2+ signal in HEK 293T cells with Gq proteins [4] is 0.5 ΔF/F.

For “Chicken Opn5 (opsin 5, neuropsin) (receptor)”, the light-induced Ca^2+ signal (Calbryte 630 AM) in HEK 293T cells with Gq proteins [5] was 3 ΔF/F.

Consider Turtle Opn5 (opsin 5) (receptor), for which, in the experiment with Gq proteins [5], the light-induced Ca^2+ signal (Calbryte 630 AM) in HEK 293T cells was 3 ΔF/F.

As to “hOPN5: Human (Homo sapiens) Opn5 ortholog, GenBank AY377391.1 [reference compound]”, the “light-induced increase in the level of inositol phosphate (IP1)” value in experiment [2] (listed as human OPN5) is recorded as “not”; in experiment [2] (listed as human Opn5), “no significant difference”. Moreover, the “light-induced increase in Ca2+ signal” value in experiment [3] is recorded as “no light effect”. The “effect of blue light illumination on cAMP levels” value in the experiment on Gi signaling is recorded as “effectively reduces cAMP levels”.

B1: mOpn5: Mouse (Mus musculus) Opn5 ortholog, GenBank NM_181753.4 (protein)
chain: MALNHTALPQDERLPHYLRDEDPFASKLSWEADLVAGFYLTIIGILSTFGNGYVLYMSSRRKKKLRPAEIMTINLAVCDLGISVVGKPFTIISCFCHRWVFGWFGCRWYGWAGFFFGCGSLITMTAVSLDRYLKICYLSYGVWLKRKHAYICLAVIWAYASFWTTMPLVGLGDYAPEPFGTSCTLDWWLAQASGGGQVFILSILFFCLLLPTAVIVFSYAKIIAKVKSSSKEVAHFDSRIHSSHVLEVKLTKVAMLICAGFLIAWIPYAVVSVWSAFGRPDSIPIQLSVVPTLLAKSAAMYNPIIYQVIDYRFACCQAGGLRGTKKKSLEDFRLHTVTAVRKSSAVLEIHPESSSRFTSAHVMDGESHSNDGDCGKK
As for B1, in experiment [3], the “light-induced increase in Ca2+ signal” value is listed as “no light effect”. Also, the “effect of blue light illumination on cAMP levels” value with Gi signaling was “effectively reduces cAMP levels”.

B2: human melanopsin: a natural opsin (melanopsin, Opn4) reported as a tool for Gq signaling activating (protein)
chain: MNPPSGPRVPPSPTQEPSCMATPAPPSWWDSSQSSISSLGRLPSISPTAPGTWAAAWVPLPTVDVPDHAHYTLGTVILLVGLTGMLGNLTVIYTFCRSRSLRTPANMFIINLAVSDFLMSFTQAPVFFTSSLYKQWLFGETGCEFYAFCGALFGISSMITLTAIALDRYLVITRPLATFGVASKRRAAFVLLGVWLYALAWSLPPFFGWSAYVPEGLLTSCSWDYMSFTPAVRAYTMLLCCFVFFLPLLIIIYCYIFIFRAIRETGRALQTFGACKGNGESLWQRQRLQSECKMAKIMLLVILLFVLSWAPYSAVALVAFAGYAHVLTPYMSSVPAVIAKASAIHNPIIYAITHPKYRVAIAQHLPCLGVLLGVSRRHSRPYPSYRSTHRSTLTSHTSNLSWISIRRRQESLGSESEVGWTHMEAAAVWGAAQQANGRSLYGQGLEDLEAKAPPRPQGHEAETPGKTKGLIPSQDPRM
Consider B2, for which the “effect of light on Ca2+ signals without ATR” value in experiment [3] (OPN4-expressing cells, 25 s light, without ATR) is “lack of effect”. Besides, in experiment [3] (Table 8, HEK 293T), the “Light Sensitivity” value turned out to be 40 mW/mm^2. Besides, the “Response amplitude: Ca2+ response amplitude” value in experiment [3] (Table 8, HEK 293T, light as in the row's sensitivity and duration columns) is reported as ~0.646 (ΔF/F). In experiment [3] (opn4-expressing cells, 25 s, 40 mW/mm2, additional retinal), the “Ca2+ signal increase” value is given as ~1 ΔF/F. Further, in the experiment on in vivo astrocytes, the “Light Sensitivity” value is 7 mW/mm^2, the “Response amplitude: Ca2+ event frequence” value is ~2 (ΔF/F) and the “change in Ca2+ amplitude” value was “no significant”.

B3: tOpn5: Turtle (Chelonia mydas) Opn5 ortholog, SEQ ID NO:2, GenBank XM_007068312.4 (protein)
chain: MASNHSTSPQDDHLPHYLQDEDPFASKLSREADIVAGFYLTIIGVLSTFGNGYVLFMSLKRKKKLKPAEIMTVNLAMCDLGISVVGKPFSIISFFSHRWVFGWLGCRWYGWAGFFFGCGSLITLTAVSLDRYLKICHLTYGTWLKRHHAFICLAIIWAYATFWATVPFAGLGNYAPEPFGTSCTLDWWLAQGSVAGQAFILNILFFCLLLPTAVIVFSYVKIIAKVKSSAKEVAHYDTRIQNSHVLEIKLTKVAMLICAGFLIAWIPYAVVSVWSAFGQPDSVPIQVSVIPTLLAKSAAMYNPIIYQVIDCKFSCCRSLQKKSSLKKSRLYTISGNREPTEMNETHLEL
modifications: Chelonia mydas
As for B3, in experiment [3], the “light-induced increase in Ca2+ signal” value is on record as ~3 ΔF/F.

B4: mouse melanopsin (Opn4): mouse melanopsin, literature optogenetic tool in Table 8 (protein, UniProt Q9QXZ9 1-521, looked up)
Melanopsin: MDSPSGPRVLSSLTQDPSFTTSPALQGIWNGTQNVSVRAQLLSVSPTTSAHQAAAWVPFPTVDVPDHAHYTLGTVILLVGLTGMLGNLTVIYTFCRNRGLRTPANMFIINLAVSDFLMSVTQAPVFFASSLYKKWLFGETGCEFYAFCGAVFGITSMITLTAIAMDRYLVITRPLATIGRGSKRRTALVLLGVWLYALAWSLPPFFGWSAYVPEGLLTSCSWDYMTFTPQVRAYTMLLFCFVFFLPLLIIIFCYIFIFRAIRETGRACEGCGESPLRQRRQWQRLQSEWKMAKVALIVILLFVLSWAPYSTVALVAFAGYSHILTPYMSSVPAVIAKASAIHNPIIYAITHPKYRVAIAQHLPCLGVLLGVSGQRSHPSLSYRSTHRSTLSSQSSDLSWISGRKRQESLGSESEVGWTDTETTAAWGAAQQASGQSFCSQNLEDGELKASSSPQVQRSKTPKVPGPSTCRPMKGQGARPSSLRGDQKGRLAVCTGLSECPHPHTSQFPLAFLEDDVTLRHL
Turning to B4, in the experiment with HEK293-TRPC3 cells ((500 nm)), the Light Sensitivity was 1e+15 photons s^−1 cm^−2. In addition, in the experiment on HEK293-TRPC3 cells, the “Response amplitude: Ca2+ response ampitude” value is on record as ~0.1 (ΔF/F).
